Results from US9005962B2, “Regionalised endoderm cells and uses thereof” (The University Court of the University of Edinburgh, priority 2007, dated 2015).

Columns and labels:
Hex^RS ES cells [1] = assay: ADE (H+C+) induction, serum-free suspension (aggregation) culture, flow cytometry; format: cell-based; conditions: added during the first two days; serum-free, aggregation and monolayer (Table 7)
Description: For ADE induction under serum-free conditions in suspension culture, ES cells were seeded onto non-coated 10 cm Petri dishes at 5×10^3 cells/ml in N2B27 culture medium supplemented with 10 ng/ml Bmp4 and 20 ng/ml activin A. Following 2 days of culture the resulting EBs were harvested as above and replated on non-coated Petri dishes at the same density in SF03 culture medium (ref Tada 2005) supplemented with 20 ng/ml activin A and 20 ng/ml EGF. The media was replaced 2 days later and then every 3 days for the duration of the experiment. For some experiments 10 ng/ml Fgf4 (R&D), 10 ng/ml Bmp4, 20 ng/ml Activin A, 1×10^−5M all-trans retinoic acid, 100 ng/ml PD173074 (Sigma), 20 ng/ml EGF and 3 μM CHIR99021 were added to the culture at the indicated timepoints.
FITC-conjugated rat anti-CD184 (CXCR4), FITC-conjugated rat anti-CD31 and FITC conjugated rat anti-CD45 were purchased from BD Pharmingen. EBs generated under various different differentiation conditions were dissociated by treatment with cell dissociation buffer (PBS based) (GIBCO-BRL). Cells were washed in PBS supplemented with 10% FCS (FB) and resuspended at a maximum density of 5×10^6 cells/ml. For surface staining 200 μl of cells were plated in a V shape 96 well polystyrene plate (Sterilin) in PBS supplemented with 1% serum of the species in which the antibody was manufactured. The FITC-conjugated antibody or a FITC-conjugated isotype control was added at a 1:100 dilution. Cells were incubated in the dark for 20 mins, washed 3 times with FB and resuspended in FB supplemented with Topro3-iodide (Invitrogen) to exclude dead cell from the analysis. Cells were analysed using a FACS Calibur (BD Biosciences) or sorted using a MoFlo MLS flow cytometer (DakoCytomation). […]
FITC-conjugated rat anti-CD184 (Cxcr4), FITC-conjugated rat anti-CD31 and FITC conjugated rat anti-CD45 were purchased from BD Pharmingen. […] Cells were analysed using a FACS Calibur (BD Biosciences) or sorted using a MoFlo MLS flow cytometer (DakoCytomation).

Hex^RS ES cells [2] = assay: ADE (H+C+) induction, serum-free adherent monolayer culture, flow cytometry, RT-PCR and immunostaining; format: cell-based; conditions: monolayer culture
Description: For ADE induction under serum-free conditions in adherent monolayer culture, ES cells were seeded onto gelatin coated 3 cm 6 well dishes (Iwaki) at a density of 1×10^4 cells/ml in N2B27 medium (StemCellSciences) supplemented with 10 ng/ml Bmp4, 20 ng/ml activin A and 10 ng/ml Fgf4. Following 2 days of culture the media was replaced with SF03 culture medium (Tada 2005) supplemented with 20 ng/ml activin A, 10 ng/ml Fgf4 and 20 ng/ml EGF. The media was replaced 2 days later and then every 3 days for the duration of the experiment. For some experiments 1×10^−5M all-trans retinoic acid, 100 ng/ml PD173074 and 3 μM CHIR99021 were added to the culture at the indicated timepoints.
(§1) FITC-conjugated rat anti-CD184 (CXCR4), FITC-conjugated rat anti-CD31 and FITC conjugated rat anti-CD45 were purchased from BD Pharmingen. EBs generated under various different differentiation conditions were dissociated by treatment with cell dissociation buffer (PBS based) (GIBCO-BRL). Cells were washed in PBS supplemented with 10% FCS (FB) and resuspended at a maximum density of 5×10^6 cells/ml. For surface staining 200 μl of cells were plated in a V shape 96 well polystyrene plate (Sterilin) in PBS supplemented with 1% serum of the species in which the antibody was manufactured. The FITC-conjugated antibody or a FITC-conjugated isotype control was added at a 1:100 dilution. Cells were incubated in the dark for 20 mins, washed 3 times with FB and resuspended in FB supplemented with Topro3-iodide (Invitrogen) to exclude dead cell from the analysis. Cells were analysed using a FACS Calibur (BD Biosciences) or sorted using a MoFlo MLS flow cytometer (DakoCytomation).
Total RNA was prepared from a minimum of 1×10^4 cells from sorted cell fractions, EBs, monolayer differentiated cells or ES cells using Trizol reagent (Invitrogen). 1 μg of RNA was used as a template for cDNA synthesis using Superscript III (Invitrogen). Real-time RT-PCR was performed using a LightCycler 480 (Roche) and LightCycler 480 SYBR Green 1 Master (Roche). The following cycling conditions were used: denaturation: 95° C. 5 sec, amplification: 95° C. 5 sec, 58° C. 10 sec, 72° C. 20 sec (45 cycles), 81° C. 1 sec, melt: 95° C. 1 sec, 65° C. 10 sec, 95° C. −ramp 5 C per sec continuous, cool: […] 10 sec. Standard curves were generated from plasmid. Samples were normalized to β-actin or TATA-box binding protein (TBP) expression levels.
Sorted cells were seeded onto gelatin coated 24 well dishes (Iwaki). Adherence of cells to the substrate was enhanced by centrifugation at 1200 rpm for 3 mins. Sorted cells, monolayer differentiated cells and ES cells were washed in PBS, fixed in 4% paraformaldehyde for 10 mins and permeabilised by washing in PBS supplemented with 0.1% Triton X (PBST). Cells were treated with a blocking reagent (3% serum of same species as secondary antibody, 1% BSA in PBST) for 15 min before incubation with the primary antibody at 4° C. overnight. The cells were washed with PBST and incubated with the appropriate fluorescence-tagged secondary antibody for 2 hr at room temperature. The cells were washed with PBST and DAPI added during the final wash. The following primary antibodies were used, all are anti-mouse: anti-Oct3/4, anti-HNF-3β (Foxa2), anti-HNF-4α (Santa Cruz), anti-Cer11 (R&D), anti-E-cadherin (Takara Bio Inc) anti-alpha fetoprotein (NeoMarkers), anti-albumin (Bethyl laboratories inc). Anti-Pdx1 was a gift from P. Serup. […]
(§2) FITC-conjugated rat anti-CD184 (Cxcr4), FITC-conjugated rat anti-CD31 and FITC conjugated rat anti-CD45 were purchased from BD Pharmingen. Cells were stained with Topro3-iodide (Invitrogen) to exclude dead cells from the analysis. Cells were analysed using a FACS Calibur (BD Biosciences) or sorted using a MoFlo MLS flow cytometer (DakoCytomation).

Hex^RS ES cells [3] = assay: ADE (H+C+) induction, two-step suspension (embryoid body) differentiation with serum day 0-2, flow cytometry for RS and Cxcr4; format: cell-based, mouse
Description: ADE was induced under serum-containing conditions using a 2-step protocol. ES cells were seeded onto non-coated 10 cm petri dishes (sterilin) at a density of 5×10^3 cells/ml in Glasgow minimum essential medium (G-MEM; GIBCO-BRL) supplemented with 10% fetal calf serum (FCS), 0.1 mM nonessential amino acids (GIBCO-BRL), 1 mM sodium pyruvate, 2 mM glutamine and 0.1 mM 2-mercaptoethanol (2ME). Following 2 days of culture the resulting embryoid bodies (EBs) were harvested by centrifugation at 500 rpm for 1 min and replated on 10 cm non-coated petri dishes at the same density in N2B27 culture medium (StemCellSciences) supplemented with 20 ng/ml activin A (R&D). The media was replaced 2 days later and then every 3 days for the duration of the experiment. For some experiments 20 ng/ml EGF, 10 ng/ml Bmp4, 20 ng/ml activin A (R&D), 1×10^−5M all-trans retinoic acid (Sigma) and 3 μM CHIR99021 (a gift from StemCellSciences) were added to the culture at the indicated timepoints.
as §1
Mouse ES cells were cultured according to Li et al., (1995). ADE was induced under serum-containing conditions using a 2-step protocol. ES cells were seeded onto non-coated 10 cm petri dishes (Sterilin) at a density of 5×10^3 cells/ml in GMEM supplemented as described in Li et al., (1995) except in the absence of LIF. EBs were harvested after two days by centrifugation and replated in N2B27 medium (StemCellSciences) supplemented with 20 ng/ml activin A (R&D) and 20 ng/ml EGF (R&D). This media was replaced again two days later. 10 ng/ml BMP4, 20 ng/ml activin A (R&D) and 1×10^−5M all-trans retinoic acid (Sigma) were added where indicated.
as §2

B1: Bmp4: bone morphogenetic protein, 10 ng/ml (protein, UniProt P12644 293-408, looked up)
Bone morphogenetic protein 4: SPKHHSQRARKKNKNCRRHSLYVDFSDVGWNDWIVAPPGYQAFYCHGDCPFPLADHLNSTNHAIVQTLVNSVNSSIPKACCVPTELSAISMLYLDEYDKVVLKNYQEMVVEGCGCR
- total number of surviving cells at the end of the 7 day differentiation (Hex^RS ES cells [1]): significantly increased
- H+C+ percentage (Hex^RS ES cells [2]): increased
- induction of the RS positive population (Hex^RS ES cells [3]; added either at day 0 or day 3 (Table 2)): completely blocked
- CXCR4 induction (Hex^RS ES cells [3]; added either at day 0 or day 3, data not shown): without effecting
